# Results as given in patent US20250066499A1 (SUNSHINE GUOJIAN PHARMACEUTICAL SHANGHAI, published 2025).
# T1: CD73-ND-Y135A (human, UniProt P21589 27-317)
# T1 construct: Alanine mutant of CD73-ND
# T1 sequence: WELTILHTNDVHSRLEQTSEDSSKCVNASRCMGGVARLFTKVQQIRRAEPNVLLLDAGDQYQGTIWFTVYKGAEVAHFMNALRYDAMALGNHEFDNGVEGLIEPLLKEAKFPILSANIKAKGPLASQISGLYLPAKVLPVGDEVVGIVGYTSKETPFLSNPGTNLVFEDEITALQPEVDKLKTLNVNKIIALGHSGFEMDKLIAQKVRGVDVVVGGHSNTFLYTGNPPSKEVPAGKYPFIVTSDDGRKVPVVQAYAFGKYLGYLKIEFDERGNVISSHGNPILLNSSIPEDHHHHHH
# T2: CD73-ND-L138A (human, UniProt P21589 27-317)
# T2 construct: Alanine mutant of CD73-ND
# T2 sequence: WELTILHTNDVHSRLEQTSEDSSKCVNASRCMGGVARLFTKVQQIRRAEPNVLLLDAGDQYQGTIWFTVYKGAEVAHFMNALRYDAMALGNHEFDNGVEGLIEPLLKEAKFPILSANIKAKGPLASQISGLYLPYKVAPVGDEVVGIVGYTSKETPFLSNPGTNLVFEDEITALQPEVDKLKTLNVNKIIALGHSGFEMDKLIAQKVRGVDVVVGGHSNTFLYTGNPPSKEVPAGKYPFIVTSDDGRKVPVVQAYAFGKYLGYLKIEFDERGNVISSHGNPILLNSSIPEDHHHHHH
# T3: CD73-ND-L133A (human, UniProt P21589 27-317)
# T3 construct: Alanine mutant of CD73-ND
# T3 sequence: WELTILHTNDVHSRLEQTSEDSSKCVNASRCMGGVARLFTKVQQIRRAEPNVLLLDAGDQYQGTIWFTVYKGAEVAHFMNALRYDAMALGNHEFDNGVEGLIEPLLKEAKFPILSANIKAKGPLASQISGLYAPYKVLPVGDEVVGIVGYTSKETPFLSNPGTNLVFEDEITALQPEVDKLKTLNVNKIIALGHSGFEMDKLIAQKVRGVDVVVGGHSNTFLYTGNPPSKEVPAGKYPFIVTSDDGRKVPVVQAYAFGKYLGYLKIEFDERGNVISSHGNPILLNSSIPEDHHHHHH
# T4: CD73-ND-V137A (human, UniProt P21589 27-317)
# T4 construct: Alanine mutant of CD73-ND
# T4 sequence: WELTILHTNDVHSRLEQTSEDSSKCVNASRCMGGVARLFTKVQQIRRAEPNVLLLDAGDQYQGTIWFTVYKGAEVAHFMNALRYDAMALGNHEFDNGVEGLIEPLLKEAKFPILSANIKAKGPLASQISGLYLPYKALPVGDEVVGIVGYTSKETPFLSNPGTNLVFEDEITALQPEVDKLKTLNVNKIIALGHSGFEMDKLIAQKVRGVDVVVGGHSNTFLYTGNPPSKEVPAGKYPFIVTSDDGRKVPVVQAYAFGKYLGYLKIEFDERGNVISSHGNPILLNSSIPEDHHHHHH
# T5: CD73-ND-K136A (human, UniProt P21589 27-317)
# T5 construct: Alanine mutant of CD73-ND
# T5 sequence: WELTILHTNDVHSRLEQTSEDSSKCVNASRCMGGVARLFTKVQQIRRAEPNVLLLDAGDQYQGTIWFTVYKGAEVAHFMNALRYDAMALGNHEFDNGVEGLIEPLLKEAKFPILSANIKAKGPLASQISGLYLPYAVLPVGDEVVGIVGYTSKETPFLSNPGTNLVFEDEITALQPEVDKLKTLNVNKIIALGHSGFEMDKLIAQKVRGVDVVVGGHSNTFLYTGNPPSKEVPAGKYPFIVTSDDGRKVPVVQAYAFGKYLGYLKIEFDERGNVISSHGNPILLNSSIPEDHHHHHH
# T6: CD73-ND-L184A (human, UniProt P21589 27-317)
# T6 construct: Alanine mutant of CD73-ND
# T6 sequence: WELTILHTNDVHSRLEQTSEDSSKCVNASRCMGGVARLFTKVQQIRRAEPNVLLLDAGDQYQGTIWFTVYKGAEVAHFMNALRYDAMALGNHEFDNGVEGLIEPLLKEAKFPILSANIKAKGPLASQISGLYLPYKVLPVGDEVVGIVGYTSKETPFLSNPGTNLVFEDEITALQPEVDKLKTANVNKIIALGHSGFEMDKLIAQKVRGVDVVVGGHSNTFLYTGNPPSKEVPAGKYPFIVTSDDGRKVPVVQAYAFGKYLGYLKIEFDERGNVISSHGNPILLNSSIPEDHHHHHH
# Columns and labels:
# Assay in all cases: ELISA; decline multiple of EC50 against CD73-ND
# CD73-ND-Y135A = target: T1, CD73-ND-Y135A
# Description: (§1) The ELISA plates were coated with SA protein diluted to 1.5 μg/mL in coating buffer (50 mM carbonate coating buffer, pH 9.6) and incubated overnight at 4° C. The supernatant was discarded, and the plates were washed three times with PBST. Then, 5% skimmed milk powder prepared with PBS was added for blocking and the plates were incubated for 2 h at 37° C. After washing the plates once with PBST, CD73-biotin protein (prepared by biotinylating CD73-His protein according to the EZ-Link NHS-Biotin Reagent instructions) was diluted to 0.5 μg/mL and added at 100 μL/well for incubation at room temperature for 1 h. The plates were washed three times with PBST, and the prepared murine-derived monoclonal antibodies against human CD73 were serially diluted with 1% BSA buffer prepared with PBST and added to the ELISA plates at 100 μl/well. The plates were incubated at 37° C. for 1 h. After washing the plates three times with PBST, HRP-labeled goat anti-mouse IgG secondary antibody was added and the plates were incubated for 30 min at 37° C. After washing the plates three times with PBST, the residual droplets were patted dry on absorbent paper as much as possible. Then, 100 μl of TMB color developing solution was added to each well, and the plates were incubated in the dark at room temperature for 5 min for color development. Subsequently, 50 μl of 2M H₂SO₄ stop solution was added to each well to terminate the substrate reaction. The OD values were read at 450 nm using a multimode microplate reader to analyze the binding ability of the tested antibodies to the target antigen human CD73-His.
# (§2) Referring to the experimental method in Example 3, the affinity of 48A11-HuV33 for various mutant proteins of CD73-ND was determined. The SA protein was diluted to 1 μg/mL for coating the ELISA plates, and the biotinylated CD73 protein (CD73-biotin) was used at a concentration of 0.1 μg/mL.
# CD73-ND-L138A = target: T2, CD73-ND-L138A
# Description: as §1, §2
# CD73-ND-L133A = target: T3, CD73-ND-L133A
# Description: as §1, §2
# CD73-ND-V137A = target: T4, CD73-ND-V137A
# Description: as §1, §2
# CD73-ND-K136A = target: T5, CD73-ND-K136A
# Description: as §1, §2
# CD73-ND-L184A = target: T6, CD73-ND-L184A
# Description: as §1, §2
binder,measurement,setting,value
"48A11-HuV33 (antibody, human IgG4, V domains shown, Humanized) VH: QVQLVQSGAEVKKPGASVKVSCKASGYTFTSYWMHWVRQAPGQGLEWIGEINPSIGRTNYNEKFKSRVTLTRDTSTSTAYMELSSLRSEDTAVYYCARRVYGTMDYWGQGTLVTVSS VL: DIQMTQSPSSLSASVGDRVTITCKASQDINSYLSWFQQKPGKSPKLLIYRANIWVDGVPSRFSGSGSGQDYTFTISSLQPEDIATYYCLQYDELYTFGQGTKVEIK",Ratio(EC50),CD73-ND-Y135A,1.1 fold
same,Ratio(EC50),CD73-ND-L138A,1.2 fold
same,Ratio(EC50),CD73-ND-L133A,169 fold
same,Ratio(EC50),CD73-ND-V137A,5.9 fold
same,Ratio(EC50),CD73-ND-K136A,1 fold
same,Ratio(EC50),CD73-ND-L184A,3.4 fold
